assay: soluble on expression in E. coli; label from the status in PepcDB or PDB records

| Sequence | soluble on expression in E. coli |
| --- | --- |
| MGSDKIHHHHHHMGLLTKGSPLTWAETVPHIDYIKKHGIAQFINLYHRLKSRHGDQLKWGDEIEYTIVKFDDANKKVRVSCKAEELLNKLQAEEQVNAMLGTANRFLWRPEFGSYMIEGTPGMPYGGLIACFNIVEANMKLRRQDETCLSISFPSLGVPGFTFPEVAADRKNDDAANSVFWPEQAVFLGHPRFKNLTKNIKGRRGSKVAINVPIFKDTNTPSPFVEDLSALGGPDDTRDAKPDHIYMDHMGFGMGCCCLQVTFQAVNVDEARWLYDQLTPITPILLALSAATPIFRGKLSNVDSRWDIISASVDDRTPEERGLEPLKNSKWVIDKSRYDSTDCYIYPCSVGYNDIPLQYDETIYKQLIDGNIDEPLAKHIAHMFIRDPHQVFRERIEQDDEKSSEHFETIQSSNWMNMRFKPPPPDAPEIGWRVEFRPTEVQLTDFENAAYCCFVVLLTRMMISFRLTYLMPISMVTENMKRAQQKDAVLNQKFLFRKGLAECKSAPENLKGSEKCGPPSQDIEEMSIDEIINGKKNGFPGLISLIRQFLDSADVDVDTRCTISQYLNFISKRATGEINTLAHWTRGFVQSHPAYKHDSDVNDNIVYDLLKKMDAISNGEDHCEKLLGCYRSKTDHAISAAVRKAEEHMIVSSQKRAH | not soluble |
| MSLTRICIVGAGAVGGYLGARLALAGEAVNVLARGATLQALQTAGLRLTEDGATHTLPVRATHDAVALGEQDVVIVAVKAPALESVAAAIAPLIGPGTCVVVAMNGVPWWFFDRPGPLQGQRLQAVDPHGRIAQAIPTRHVLGCVVHLTSATASPGHIRHGNGRRLILGEPAGGASPRLASIAALFGRAGLQAECSEAIQRDIWFKLWGNMTMNPVSVLTGATCDRILDDPLVSAFCLAVMAEAKAIGARIGCPIEQSGEARSAVTRQLGAFKTSMLQDAEAGRGPLEIDALVASVREIGRHVGVPTPQIDTLLGLVRLHAQTRGLYEGHHHHHH | soluble |
| MLSVRVAIVGGGLAGLYAAALLEARGVTDYVLLEARETFGGRIMSVPVAAEPDAQRDAAERFDLGATWFWPAMQPELLRVVTAFGVEAFEQYETGAMLVERARDQPAMRIDAGASMSGAWRMAGGMGALTDAISRRLDAARLRAGWRVQRLRKVDEGVDVEAEDGVGRARCWRAAQVLLAMPPRLAVRTVAFAPALPDVLALPWAACQTWMAPHAKYLAVYDMPFWREQGLSGGARSAAGPLAEIHDASGQQGGAALFGFLGVPAAARGRMAQADLRAACRAQLVRLFGERARWPRAEFLKDWADDVCTAVDADRCAQGSHAELPPALADAGAWKDRLIGIASEWSPAFGGYAAGAVDAARRGVEALLGSPDAGVPARRHQGRLWEAWRLEHHHHHH | soluble |
| RPAPLWAVVADAAVQPAMAAGNDDFETARALDTARELVAGLREGVDSLGGDVAEFKAAIPQHNFEQICDGCFAPIDPGVEPDYVVAHRVSCCMIYHSPTAGKCTSCPHQDKDVRKNALIAASESF | not soluble |
| MLGIDLGSNTLRAVQMDEKLNKLKEYEFVIGAAKNLNQSGEISKEAIQRLKNTLSILAKEQDLSKARAVATAAFRKASNTNEIFAHLKKEFGIDFKLIDAKSEAKISVLGMQSGLRRLKIWGEFAYCDLGGASCELSFGKSFKSFDFGIISFYEKNYHSYYKSCISYKKLIKKYPKFIINIKDKKLKIHFLIANPYLKHLAFRAFDEVAMIKKELRSLGAKTVVLNSGVPTTLSALKQNISYEKYEATKVNGKKLCHKDFLNYAIKLFHMEEKKAIKEVGTMRKNYLSAGCLLFYALFDKHKLLVIDEGLREGVCLASMKNIKF | not soluble |
| RAKQQAAKSERRVRELTEATNDILWEFTADLSEVLVINSAYEDIWGRSVAKLRENPHDFLNGIHPEDRELMKDTMQSLMDGESADVECRVNATEEYQRWVWIQGEPITNDAGETVRVAGFARDIT | soluble |
| SHMPASVQLHTAVEMHHWCIPFSVDGQPAPSLRWLFNGSVLNETSFIFTEFLEPAANETVRHGCLRLNQPTHVNNGNYTLLAANPFGQASASIMAAFMDNPFEFNPEDPIPDTNSTSGDPVEKKDE | soluble |
| SNEGKELSTFCRKFEVPLRKALEKAGRLVDDPGRPRLLLTFISGRRVFVGVASASNSALWPMGIPRLKFPREAPSRSTLKLEEAWHQFIPREQWEQRLGDDMTGVDLGASPGGWTYQLVRRGMLVTAIDNGPMAESLMDTGLVQHLMADGFTWQPKQPVDWMVCDIVEKPARTTSLIETWLGEGLCREAVVNLKLPMKQRYAEVRRLLDRMEATFKARKIRVSIACKQLYHDREEVTCHLRRLDLK | not soluble |
| MPILEEPHESRTITLPPRPARLGGRCDVLVVGGGPAGFAAAVGAADAGADTVLVERYGFLGGNATAALVMPLMSFHNEHKQAAFTEAGDTSRLLPTDHGEGEPVVAGVLWQLLDRLTGRGGCLPPSPKTGYTVPFDPELFKFCLLEMADESGVRMLFHSFASGALPLDDGPGWRVVFETKSGPVVIDAGVVVDGTGDGDVAAACGAPYEVGRPEDGLVQPMTLMFRVADFARPDFAAYVREHPDQWRGVHGLWDLIEEARKNGELRLPREDILFFATPHPHEVAVNSTRVNRVLGTSVWDLTRAEYTARHQLAEIDRFLRTRVPGFEESYVVQSGTHVGVRESRRVVGDHRLTGHDILAARTFPDVIAHGAYPVDIHNPRGSGTVLKRVPRGSFYDIPLRCLLPRDTDRLLVAGRCISGTHVAHSSYRVMPIAMATGHAAGVCAALTVRHGSGPRGLPYRLVQRELLRQGARLRTEPHLEHHHHHH | not soluble |
| MSLIGALIATIIPGLSNNSPPTQLSSLATLALPLPPPYTSTADTWRMVTIKPGQTLSSIFNELKLSSNDMERVLNYADLRKLLTRLSPGDEISFDIPNDGQLRGMRFNRDEKHRVELTLDDNTIHQQVSERQTSTRTVIASGEIKSSLWIAAREAGLSPADVITLTDEIFKYDIDFDKDLQTGDRFSVVMDETWREGERLPDAKILAATFNTGGKIYSGMRFMRDGKVEYFDKDGRPLKKSFIRMPISYARLSSTFGLRRHPILGTMRMHKGVDYAAATGTPIMAAGDARVQFIGQQRGYGNVVILNHGKGYRTLYGHMSRFGKIKAGQKINQGTVIGYVGMTGLATGPHLHYEFQVNGQHRNPLSITMPPPEPLRGKDLIAFRTQTAPLIAQIQQYEKRFYAITNKHDSKSTEKSTRGEGHHHHHH | not soluble |
| MTAVPLPILHLPHNALQMSLKQMSTVEHLALSFVSNKTRRLIKMLKEKNHITCISMGSPISIDFLSLTFDYKSNQKIVKIDNPEQNGSLSRLNLPGFTEKQWIEHFANVFIQNKKVMLISDLGERKIEDIYESIKDLNIVTLDIMTSEFQDCKLFKLFPTLEELGVSETPLSAPIFVQNFQSLTAIDVTLDDILSSNCTNLCLDDQLISDKDLNIFMRNWIKGSNPRLRKLTNTSVRHERDISDSVFFRGISQIKTRDWCDEDTFDKEFEIKNEDGVRAKVTLSTFSFIFCIEDF | not soluble |
| MSKYGCPTSDTDPNSVTMITKRGPVNKTLKSAAQLNAAQRAGVDISTEKKTMSGGNRQHSANKNTLRLDEETEELHHQKVALSLGKVMQQARATKGWTQKDLSTQINEKPQVVGEYESGKAVPNQQIMAKMERALGVKLRGKDIGMPFSTKPPAKK | not soluble |
| MGSDKIHHHHHHMKPGSHLFSPISFQESTPLYRQLYERVRRAISVGLLFPGDRLPSARMLAKELGVARGTIEQAYSLLIAEGYLQAHGQAGTRVNPDLPSASLPVAEAPVSPSAPDAEQQILWRPSQLLPFQMGVPAFDAFPRKLWARLGARYLRSMQLPDLDYPAPYGLPALRNAIASYLQVSRGIDCTANQVFITSGWRANLQLATLALLKSGQRVWVEDPGYPPTRQLLSQSGLCPIAVSVDREGINVERGIAQANDASMAVVTPAHQSPLSMSLSLPRRQALLQWATAQNAWIMEDDYDGEYRYISRPLPALASLDRHGRVLYAGTFSKVLFPGIRLAYLVVPQSQVAAFEHINRIFFASASPTMTQSIVASFITEGHFARHIQRTRRLYAERRTATITVLQGILGNRIRIDSQPGGMHLVLRLPDKFSDRQLADRLLAQGIAVQPLSRWAVSGSGDNALLVSFTNCTTVMESERLAALILAECEQHGNSLA | not soluble |
| MSLSRKYFGTDGIRGRVGEFPITPDFVLKLGWAVGMAFRRQGNCRVLIGKDTRSSGYMFESAFEAGLSASGADTLLLGPMPTPGIAYLTRTFHAEAGVVISASHNPHDDNGIKFFSGQGTKLPDDVELMIEELLDAPMTVVESARLGKVSRINDAAGRYIEFCKSSVPTSTDFNGLKVVLDCANGATYKIAPSVFRELGAEVTVLAASPNGLNINDKCGSTHLDGLQAAVVEHHADLGIAFDGDGDRVMMVDHTGAVVDGDELLFLIARDLQESGRLQGGVVGTLMSNLGLELALQELHIPFVRAKVGDRYVMAELLARNWMLGGENSGHIVCCQNTTTGDAIIAALQVLMALKHRGQTLAEARQGIRKCPQVLINVRFKGENDPLEHPSVKEASVRVTEQMGGRGRVLLRKSGTEPLVRVMVEGDEEASVRAHAEQLAKIVSEVCAEGHHHHHH | soluble |
| MPAVAFPVSSPRLLARAVQIAVLAMGALCVGCQSVDYSPPRQDRPPRLVSGLVYWGGDDKEGSRAADKISDLPVYNGEDVWQRVAQRCRLVDGQGMNERIARQRDWLLSNRGFITGASVRASPYLHFIVERLDERNMPLELALLPMIESSYNPMANSPAAAAGLWQFIPSTGRSFNLHQSATYDARRDVVASSKAAMDYLTRLHDQFNNDWLLALAAYNAGEGTVGRAIEANRRRGLPVDYWNLNLPKETQDYVPRLLALSMVVRNPNAYGVKLTPVANTPYFDVVELNHAVDLTQLAATAGVDEGQLLRLNSAFLRKKTFDGPGRLLIPKTQNRVLTTSIARITGESPVTASIPLVTPSAIVKRAAERLPAPAPVAERPVRVAERPPLPKPVQSAQLAENLPSPKTAQPLPVAQQPTAPEALQPAPAAESAPAVEIAQSAPVVEPDPLTNRIQLPRIRDDRSSPRKRDDDEYRSGPRELPTGPRVVVFASDPRQLEHHHHHH | not soluble |
| LDINKPENVISKEVSFLGEALPKSIKSECPNESFTLDDKDVVKSTSGSVQNEPLKNINENIYDPKLKKALDKSKPEILIYHSHTTEAYKPYPADSLNSTQNVCAVGDELVKELGEKYGIYAINDKTVHNVVDYNKSYTRSGETLDKYLKQYGDFKMIIDMHRDSDVPKSKVTARINGEDVAKFMFVMTRKNPHFDKNMALVNGLVSICNKDFPGIFNGIYYYDYGINYYNQQKSNNAFLLEVGSDINTIDEAKGTSKYLARIIAEYLNGKK | not soluble |
| MDNKIMLRNRYISKIQNKLRDLTDSINFLSEIDQAILNQTAGAGPGAAGPGAAPDRSSTINLQALREKLTTLNTDDGPTRTAIRDKTAAIQTSIRDINLKLEELMKNINTSAGKLADAVSAIPTPTDDLGAAGAAGAAGAAGAAAGAGAGAA | not soluble |
| MGSDKIHHHHHHMGIYRTQLPQLDGGVFLTDGGIETTLIFHEGFELPYFAAFELLKTPQGRDALTHYFVTYVKLAGLFDTGFILESPTWRASSDWGALLGYTKETLAQANREAIALLEVIREAHSGRLPVVVSGCIGPRFDGYLPDKSMTAEDARHYHSIQIETLASTSADMICALTLNRVEEAIGIVEAAREAAMPVVISFTLETDGRLPTGQSLGDAVVQVDEATAGYAAYFMINCAHPSHLETVPQDAPWLARVKGFRANASSLSHAELNDATTLDDGDPHQLGQQYASLMSTRLKGLNVLGGCCGTDHRHLEQIAKACIKPR | not soluble |
| KNYDLIFGDSNTKKYYAQFAKEHKTHLYHQILQSNDEQFRFVENDQTVTSQTPFKS | not soluble |

Reference: the DeepSol protein solubility set
